According to patent publication US20040213833A1 (published 2004):
Positions of bridges follow the written chain, without caps; N, C: chain ends. No end group written: not given here.

T1: MMP-2 (matrix metalloproteinase-2, gelatinase), purified enzyme (UniProt P08253 110-660, limits assumed)
T1 sequence (looked up): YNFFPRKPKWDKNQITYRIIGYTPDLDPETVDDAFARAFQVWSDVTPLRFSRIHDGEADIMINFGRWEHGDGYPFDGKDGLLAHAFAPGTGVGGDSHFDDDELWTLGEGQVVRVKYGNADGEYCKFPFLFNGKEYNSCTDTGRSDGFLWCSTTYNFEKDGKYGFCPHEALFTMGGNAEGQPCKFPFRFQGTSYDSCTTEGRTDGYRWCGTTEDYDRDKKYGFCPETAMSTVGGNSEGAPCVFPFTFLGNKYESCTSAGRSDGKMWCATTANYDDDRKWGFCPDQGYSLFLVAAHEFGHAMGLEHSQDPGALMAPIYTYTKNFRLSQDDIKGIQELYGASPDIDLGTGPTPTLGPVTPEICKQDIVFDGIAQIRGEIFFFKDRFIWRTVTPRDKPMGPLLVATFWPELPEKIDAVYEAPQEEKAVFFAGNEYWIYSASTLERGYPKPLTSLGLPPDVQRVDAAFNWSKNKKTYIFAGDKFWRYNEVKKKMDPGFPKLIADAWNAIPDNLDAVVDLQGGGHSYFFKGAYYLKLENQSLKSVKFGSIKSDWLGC


Assays:
Experiment in all cases: cell-based or functional assay
[1] = target: T1, MMP-2 (matrix metalloproteinase-2, …)
[2] = target: MMP-9 (matrix metalloproteinase-9, gelatinase), purified enzyme (UniProt P14780 107-707, limits assumed)
MMP-9 (matrix metalloproteinase-9, gelatinase), purified enzyme, sequence (P14780 107-707 limits assumed): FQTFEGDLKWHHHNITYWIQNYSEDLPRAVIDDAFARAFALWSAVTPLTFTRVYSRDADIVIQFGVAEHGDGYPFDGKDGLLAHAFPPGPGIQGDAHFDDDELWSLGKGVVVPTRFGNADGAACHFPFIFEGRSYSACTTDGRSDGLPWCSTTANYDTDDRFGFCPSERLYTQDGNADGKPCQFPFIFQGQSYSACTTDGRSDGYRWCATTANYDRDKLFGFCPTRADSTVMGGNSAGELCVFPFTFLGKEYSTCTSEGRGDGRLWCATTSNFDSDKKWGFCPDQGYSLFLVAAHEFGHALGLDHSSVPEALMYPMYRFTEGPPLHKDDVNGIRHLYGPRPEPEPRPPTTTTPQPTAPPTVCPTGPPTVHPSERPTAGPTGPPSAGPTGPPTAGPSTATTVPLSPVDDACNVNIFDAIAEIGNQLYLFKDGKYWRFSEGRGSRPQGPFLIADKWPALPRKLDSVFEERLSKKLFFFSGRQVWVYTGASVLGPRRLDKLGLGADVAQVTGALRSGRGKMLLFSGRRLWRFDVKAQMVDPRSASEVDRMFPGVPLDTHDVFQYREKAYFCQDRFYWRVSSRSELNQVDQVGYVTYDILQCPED

[3] = target: cell surface-bound gelatinases (of HT1080 cells)

Binder | inhibition of MMP-2 activity, casein zymography (area digested), peptide at 85 uM [1] [% inhibition] | IC50 of inhibition of MMP-9 activity, gelatinase assay with fluorogenic peptide substrate [2] [µM] | transfer of rhodamine B liposomes with CTT into HT1080 cells after preincubation with TIMP-2 (10 µg/ml) [3] [% inhibition]
CTTHWGFTLC (disulfide 1-10) [CTT peptide CTTHWGFTLC (cyclic, free in solution)] | ~70 | 8 | –
CLPGHWGFPSC (disulfide 1-11) [CLP peptide CLPGHWGFPSC] | 50 | – | –

Continued, values first:

inhibition of MMP-2 activity, casein zymography (area digested), peptide at 85 uM [1] [% inhibition] | IC50 of inhibition of MMP-9 activity, gelatinase assay with fluorogenic peptide substrate [2] [µM] | transfer of rhodamine B liposomes with CTT into HT1080 cells after preincubation with TIMP-2 (10 µg/ml) [3] [% inhibition] | Binder
~30 | – | – | STTHWGFTLC [STT peptide … (linear analog of CTT)]
– | – | 50 | CTTHWGFTLC (disulfide 1-10; also: adsorbed non-covalently to POPC/POPE liposomes) [CTT peptide … bound to POPC/POPE (80/20 mol/mol) liposomes]
– | 8 | – | CTTHWGFTLC (disulfide 1-10; also: adsorbed non-covalently to POPC/POPE liposomes) [CTT peptide CTTHWGFTLC bound to POPC/POPE (80/20 mol/mol) liposomes]
